# Patent USRE47150 (Bayer, dated 2018)
# T1: mouse tissue factor pathway inhibitor (TFPI) (mouse, UniProt O54819 29-289, limits assumed)
# T1 construct: bought; also called mTFPI; murine TFPI
# T1 sequence (looked up): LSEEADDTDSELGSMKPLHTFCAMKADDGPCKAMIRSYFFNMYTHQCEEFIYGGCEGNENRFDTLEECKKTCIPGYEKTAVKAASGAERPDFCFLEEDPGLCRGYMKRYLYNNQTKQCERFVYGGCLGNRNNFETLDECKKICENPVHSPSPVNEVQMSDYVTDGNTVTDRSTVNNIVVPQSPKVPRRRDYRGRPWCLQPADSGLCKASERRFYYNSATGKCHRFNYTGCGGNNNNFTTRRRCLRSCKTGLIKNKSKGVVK
# T2: human tissue factor pathway inhibitor (TFPI) (human, UniProt P10646 29-304, limits assumed)
# T2 construct: bought; also called hTFPI; human TFPI
# T2 sequence (looked up): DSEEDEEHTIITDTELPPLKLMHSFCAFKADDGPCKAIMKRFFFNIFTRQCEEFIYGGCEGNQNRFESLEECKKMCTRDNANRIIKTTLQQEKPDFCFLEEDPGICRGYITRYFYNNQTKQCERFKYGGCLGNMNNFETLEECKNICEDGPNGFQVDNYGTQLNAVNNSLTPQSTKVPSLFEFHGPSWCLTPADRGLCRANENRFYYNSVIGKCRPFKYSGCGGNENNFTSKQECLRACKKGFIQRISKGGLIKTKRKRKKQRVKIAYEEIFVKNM
# Legend:
# [1] = target: T1, mouse tissue factor pathway inhibitor …; assay: competitive ELISA
# [2] = target: T2, human tissue factor pathway inhibitor …; assay: competitive ELISA
Binder,variant/HC_D62R [1],variant/HC_D62R [2],binding result [1]
"4B7 HC N32D+D62R+Y112D/LC M4L+S32R+D33F+N35I+D97T (Fab, V domains shown) VH: QVQLQQSGPGLVKPSQTLSLTCAISGDSVSSDSAAWSWIRQSPGRGLEWLGIIYKRSKWYNRYAVSVKSRITINPDTSKNQFSLQLNSVTPEDTAVYYCARWHSDKHWGFDDWGQGTLVTVSS VL: DIVLTQSPLSLPVTPGEPASISCRSSQSLVFRFGITYLNWYLQKPGQSPQLLIYKGSNRASGVPDRFSGSGSGTDFTLKISRVEAEDVGVYYCQQYTSYPLTFGQGTKVEIKR",23.9 ratio,21.3 ratio,–
"4B7 HC N32D+D62R+Y112D/LC S32R+D33F+N35I+A60D+D97T (Fab, V domains shown) VH: QVQLQQSGPGLVKPSQTLSLTCAISGDSVSSDSAAWSWIRQSPGRGLEWLGIIYKRSKWYNRYAVSVKSRITINPDTSKNQFSLQLNSVTPEDTAVYYCARWHSDKHWGFDDWGQGTLVTVSS VL: DIVMTQSPLSLPVTPGEPASISCRSSQSLVFRFGITYLNWYLQKPGQSPQLLIYKGSNRDSGVPDRFSGSGSGTDFTLKISRVEAEDVGVYYCQQYTSYPLTFGQGTKVEIKR",14.3 ratio,19.1 ratio,–
"4B7 HC N32D+D62R+Y112D/LC S32R+D33F+N35I+D97T+S98H (Fab, V domains shown) VH: QVQLQQSGPGLVKPSQTLSLTCAISGDSVSSDSAAWSWIRQSPGRGLEWLGIIYKRSKWYNRYAVSVKSRITINPDTSKNQFSLQLNSVTPEDTAVYYCARWHSDKHWGFDDWGQGTLVTVSS VL: DIVMTQSPLSLPVTPGEPASISCRSSQSLVFRFGITYLNWYLQKPGQSPQLLIYKGSNRASGVPDRFSGSGSGTDFTLKISRVEAEDVGVYYCQQYTHYPLTFGQGTKVEIKR",7.1 ratio,17.9 ratio,–
"4B7 HC N32D+D62R+Y112D/LC S32R+D33F+N35I+T36N+D97T (Fab, V domains shown) VH: QVQLQQSGPGLVKPSQTLSLTCAISGDSVSSDSAAWSWIRQSPGRGLEWLGIIYKRSKWYNRYAVSVKSRITINPDTSKNQFSLQLNSVTPEDTAVYYCARWHSDKHWGFDDWGQGTLVTVSS VL: DIVMTQSPLSLPVTPGEPASISCRSSQSLVFRFGINYLNWYLQKPGQSPQLLIYKGSNRASGVPDRFSGSGSGTDFTLKISRVEAEDVGVYYCQQYTSYPLTFGQGTKVEIKR",35.4 ratio,25.2 ratio,–
"4B7 HC N32D+D62R+Y112D/LC S32R+D33F+N35I+Q50R+D97T (Fab, V domains shown) VH: QVQLQQSGPGLVKPSQTLSLTCAISGDSVSSDSAAWSWIRQSPGRGLEWLGIIYKRSKWYNRYAVSVKSRITINPDTSKNQFSLQLNSVTPEDTAVYYCARWHSDKHWGFDDWGQGTLVTVSS VL: DIVMTQSPLSLPVTPGEPASISCRSSQSLVFRFGITYLNWYLQKPGQSPRLLIYKGSNRASGVPDRFSGSGSGTDFTLKISRVEAEDVGVYYCQQYTSYPLTFGQGTKVEIKR",39.4 ratio,25.9 ratio,–
"4B7 HC N32D+D62R+Y112D/LC S32R+D33F+N35I+L51R+D97T (Fab, V domains shown) VH: QVQLQQSGPGLVKPSQTLSLTCAISGDSVSSDSAAWSWIRQSPGRGLEWLGIIYKRSKWYNRYAVSVKSRITINPDTSKNQFSLQLNSVTPEDTAVYYCARWHSDKHWGFDDWGQGTLVTVSS VL: DIVMTQSPLSLPVTPGEPASISCRSSQSLVFRFGITYLNWYLQKPGQSPQRLIYKGSNRASGVPDRFSGSGSGTDFTLKISRVEAEDVGVYYCQQYTSYPLTFGQGTKVEIKR",5.2 ratio,11.2 ratio,–
"4B7 HC N32D+D62R+Y112D/LC S32R+D33F+N35I+K44R+D97T (Fab, V domains shown) VH: QVQLQQSGPGLVKPSQTLSLTCAISGDSVSSDSAAWSWIRQSPGRGLEWLGIIYKRSKWYNRYAVSVKSRITINPDTSKNQFSLQLNSVTPEDTAVYYCARWHSDKHWGFDDWGQGTLVTVSS VL: DIVMTQSPLSLPVTPGEPASISCRSSQSLVFRFGITYLNWYLQRPGQSPQLLIYKGSNRASGVPDRFSGSGSGTDFTLKISRVEAEDVGVYYCQQYTSYPLTFGQGTKVEIKR",40.1 ratio,26 ratio,–
"4B7 HC N32D+D62R+Y112D/LC S32R+D33R (Fab, V domains shown) VH: QVQLQQSGPGLVKPSQTLSLTCAISGDSVSSDSAAWSWIRQSPGRGLEWLGIIYKRSKWYNRYAVSVKSRITINPDTSKNQFSLQLNSVTPEDTAVYYCARWHSDKHWGFDDWGQGTLVTVSS VL: DIVMTQSPLSLPVTPGEPASISCRSSQSLVFRRGNTYLNWYLQKPGQSPQLLIYKGSNRASGVPDRFSGSGSGTDFTLKISRVEAEDVGVYYCQQYDSYPLTFGQGTKVEIKR",7.2 ratio,14.8 ratio,–
"4B7 HC N32D+D62R+Y112D/LC S32R+D33F+N35I+L42Q+D97T (Fab, V domains shown) VH: QVQLQQSGPGLVKPSQTLSLTCAISGDSVSSDSAAWSWIRQSPGRGLEWLGIIYKRSKWYNRYAVSVKSRITINPDTSKNQFSLQLNSVTPEDTAVYYCARWHSDKHWGFDDWGQGTLVTVSS VL: DIVMTQSPLSLPVTPGEPASISCRSSQSLVFRFGITYLNWYQQKPGQSPQLLIYKGSNRASGVPDRFSGSGSGTDFTLKISRVEAEDVGVYYCQQYTSYPLTFGQGTKVEIKR",43 ratio,26.9 ratio,–

# More lines, now with the values ahead:
variant/HC_D62R [1],variant/HC_D62R [2],binding result [1],Binder
20.3 ratio,19.6 ratio,–,"4B7 HC N32D+D62S+H107M+Y112D/LC S32R+D33R+N35T (Fab, V domains shown) VH: QVQLQQSGPGLVKPSQTLSLTCAISGDSVSSDSAAWSWIRQSPGRGLEWLGIIYKRSKWYNSYAVSVKSRITINPDTSKNQFSLQLNSVTPEDTAVYYCARWHSDKMWGFDDWGQGTLVTVSS VL: DIVMTQSPLSLPVTPGEPASISCRSSQSLVFRRGTTYLNWYLQKPGQSPQLLIYKGSNRASGVPDRFSGSGSGTDFTLKISRVEAEDVGVYYCQQYDSYPLTFGQGTKVEIKR"
42.2 ratio,26.1 ratio,–,"4B7 HC N32D+D62R+Y112D/LC V30L+S32R+D33F+N35I+D97T (Fab, V domains shown) VH: QVQLQQSGPGLVKPSQTLSLTCAISGDSVSSDSAAWSWIRQSPGRGLEWLGIIYKRSKWYNRYAVSVKSRITINPDTSKNQFSLQLNSVTPEDTAVYYCARWHSDKHWGFDDWGQGTLVTVSS VL: DIVMTQSPLSLPVTPGEPASISCRSSQSLLFRFGITYLNWYLQKPGQSPQLLIYKGSNRASGVPDRFSGSGSGTDFTLKISRVEAEDVGVYYCQQYTSYPLTFGQGTKVEIKR"
28.4 ratio,23.9 ratio,–,"4B7 HC N32D+D62R+Y112D/LC V30L+S32R+D33F+N35I+T36N+D97T (Fab, V domains shown) VH: QVQLQQSGPGLVKPSQTLSLTCAISGDSVSSDSAAWSWIRQSPGRGLEWLGIIYKRSKWYNRYAVSVKSRITINPDTSKNQFSLQLNSVTPEDTAVYYCARWHSDKHWGFDDWGQGTLVTVSS VL: DIVMTQSPLSLPVTPGEPASISCRSSQSLLFRFGINYLNWYLQKPGQSPQLLIYKGSNRASGVPDRFSGSGSGTDFTLKISRVEAEDVGVYYCQQYTSYPLTFGQGTKVEIKR"
–,7.8 ratio,no binding,"4B7 HC N32D+D62R+Y112D/LC S32R+D33F+N35I+K55L+D97T (Fab, V domains shown) VH: QVQLQQSGPGLVKPSQTLSLTCAISGDSVSSDSAAWSWIRQSPGRGLEWLGIIYKRSKWYNRYAVSVKSRITINPDTSKNQFSLQLNSVTPEDTAVYYCARWHSDKHWGFDDWGQGTLVTVSS VL: DIVMTQSPLSLPVTPGEPASISCRSSQSLVFRFGITYLNWYLQKPGQSPQLLIYLGSNRASGVPDRFSGSGSGTDFTLKISRVEAEDVGVYYCQQYTSYPLTFGQGTKVEIKR"
–,1.3 ratio,no binding,"4B7 HC N32D+D62R+Y112D/LC S32R+D33F+N35I+N39D+D97T (Fab, V domains shown) VH: QVQLQQSGPGLVKPSQTLSLTCAISGDSVSSDSAAWSWIRQSPGRGLEWLGIIYKRSKWYNRYAVSVKSRITINPDTSKNQFSLQLNSVTPEDTAVYYCARWHSDKHWGFDDWGQGTLVTVSS VL: DIVMTQSPLSLPVTPGEPASISCRSSQSLVFRFGITYLDWYLQKPGQSPQLLIYKGSNRASGVPDRFSGSGSGTDFTLKISRVEAEDVGVYYCQQYTSYPLTFGQGTKVEIKR"
–,5.7 ratio,no binding,"4B7 HC N32D+I53T+D62Q+Y112D/LC F31I+D33F+N35I (Fab, V domains shown) VH: QVQLQQSGPGLVKPSQTLSLTCAISGDSVSSDSAAWSWIRQSPGRGLEWLGITYKRSKWYNQYAVSVKSRITINPDTSKNQFSLQLNSVTPEDTAVYYCARWHSDKHWGFDDWGQGTLVTVSS VL: DIVMTQSPLSLPVTPGEPASISCRSSQSLVISFGITYLNWYLQKPGQSPQLLIYKGSNRASGVPDRFSGSGSGTDFTLKISRVEAEDVGVYYCQQYDSYPLTFGQGTKVEIKR"
41.5 ratio,26.5 ratio,–,"4B7 HC N32D+G44S+D62R+Y112D/LC S32R+D33F+N35I+D97T (Fab, V domains shown) VH: QVQLQQSGPGLVKPSQTLSLTCAISGDSVSSDSAAWSWIRQSPSRGLEWLGIIYKRSKWYNRYAVSVKSRITINPDTSKNQFSLQLNSVTPEDTAVYYCARWHSDKHWGFDDWGQGTLVTVSS VL: DIVMTQSPLSLPVTPGEPASISCRSSQSLVFRFGITYLNWYLQKPGQSPQLLIYKGSNRASGVPDRFSGSGSGTDFTLKISRVEAEDVGVYYCQQYTSYPLTFGQGTKVEIKR"
7 ratio,25 ratio,–,"4B7 HC N32D+D62R+Y112D/LC V30L+S32R+N35I+T36N (Fab, V domains shown) VH: QVQLQQSGPGLVKPSQTLSLTCAISGDSVSSDSAAWSWIRQSPGRGLEWLGIIYKRSKWYNRYAVSVKSRITINPDTSKNQFSLQLNSVTPEDTAVYYCARWHSDKHWGFDDWGQGTLVTVSS VL: DIVMTQSPLSLPVTPGEPASISCRSSQSLLFRDGINYLNWYLQKPGQSPQLLIYKGSNRASGVPDRFSGSGSGTDFTLKISRVEAEDVGVYYCQQYDSYPLTFGQGTKVEIKR"
–,12.1 ratio,no binding,"4B7 HC N32D+D62R+Y112D/LC S32R+D33F+N35I+G56V+D97T (Fab, V domains shown) VH: QVQLQQSGPGLVKPSQTLSLTCAISGDSVSSDSAAWSWIRQSPGRGLEWLGIIYKRSKWYNRYAVSVKSRITINPDTSKNQFSLQLNSVTPEDTAVYYCARWHSDKHWGFDDWGQGTLVTVSS VL: DIVMTQSPLSLPVTPGEPASISCRSSQSLVFRFGITYLNWYLQKPGQSPQLLIYKVSNRASGVPDRFSGSGSGTDFTLKISRVEAEDVGVYYCQQYTSYPLTFGQGTKVEIKR"
